Laboratory results from the supplement of paper PMC10567573.

B1: DULLARD (parent)
chain: LVVFTASMEIYGSAVADKLDNSRS

Variants of: B1
Assay: protein stability index of a GFP-peptide fusion (GPS, HEK-293T) (PSI 1-6); higher = more stable
Conditions: c terminus: a fixed tail appended
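Further: lentivirally expressed fusions sorted by FACS into six bins by GFP to DsRed ratio, PSI derived from sequencing read proportions per bin multiplied by bin number.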

For LVVFTASMEIYGQAVADKLDNSRS [S13Q], which protein stability index is on record?
The protein stability index was 1.29.

With LVVFTASMEIYGRAVADKLDNSRS [S13R] as the variant, how does the protein stability index read?
Its protein stability index is 2.84.

With LVVFTASMEIYGTAVADKLDNSRS [S13T] as the variant, how does the protein stability index read?
Its protein stability index is 2.42.

For LVVFTASMEIYGYAVADKLDNSRS [S13Y], which protein stability index is on record?
The protein stability index was 2.58.

Which protein stability index does the source give for LVVFTASMEIYGSCVADKLDNSRS [A14C] here?
Its protein stability index is 2.02.

For LVVFTASMEIYGSDVADKLDNSRS [A14D], which protein stability index is on record?
Its protein stability index is 1.19.

Which protein stability index does the source give for LVVFTASMEIYGSEVADKLDNSRS [A14E] here?
The protein stability index was 1.04.

With LVVFTASMEIYGSNVADKLDNSRS [A14N] as the variant, how does the protein stability index read?
Its protein stability index is 2.84.

For LVVFTASMEIYGSPVADKLDNSRS [A14P], which protein stability index is on record?
The protein stability index was 1.73.

Which protein stability index does the source give for LVVFTASMEIYGSQVADKLDNSRS [A14Q] here?
Its protein stability index is 1.99.

For LVVFTASMEIYGSRVADKLDNSRS [A14R], which protein stability index is on record?
The protein stability index was 4.28.

Which protein stability index does the source give for LVVFTASMEIYGSSVADKLDNSRS [A14S] here?
The protein stability index was 2.32.

Which protein stability index does the source give for LVVFTASMEIYGSTVADKLDNSRS [A14T] here?
Its protein stability index is 3.78.

Which protein stability index does the source give for LVVFTASMEIYGSVVADKLDNSRS [A14V] here?
Its protein stability index is 1.69.

With LVVFTASMEIYGSAAADKLDNSRS [V15A] as the variant, how does the protein stability index read?
The protein stability index was 2.

For LVVFTASMEIYGSACADKLDNSRS [V15C], which protein stability index is on record?
Its protein stability index is 1.95.

Which protein stability index does the source give for LVVFTASMEIYGSADADKLDNSRS [V15D] here?
The protein stability index was 1.11.

Which protein stability index does the source give for LVVFTASMEIYGSAEADKLDNSRS [V15E] here?
Its protein stability index is 2.32.

For LVVFTASMEIYGSAGADKLDNSRS [V15G], which protein stability index is on record?
The protein stability index was 2.14.

With LVVFTASMEIYGSAHADKLDNSRS [V15H] as the variant, how does the protein stability index read?
The protein stability index was 1.82.

For LVVFTASMEIYGSAIADKLDNSRS [V15I], which protein stability index is on record?
The protein stability index was 3.03.

With LVVFTASMEIYGSAKADKLDNSRS [V15K] as the variant, how does the protein stability index read?
Its protein stability index is 2.26.

Which protein stability index does the source give for LVVFTASMEIYGSALADKLDNSRS [V15L] here?
Its protein stability index is 1.48.

Which protein stability index does the source give for LVVFTASMEIYGSANADKLDNSRS [V15N] here?
The protein stability index was 1.87.

For LVVFTASMEIYGSARADKLDNSRS [V15R], which protein stability index is on record?
The protein stability index was 3.02.

For LVVFTASMEIYGSASADKLDNSRS [V15S], which protein stability index is on record?
Its protein stability index is 2.48.

With LVVFTASMEIYGSATADKLDNSRS [V15T] as the variant, how does the protein stability index read?
The protein stability index was 1.66.

With LVVFTASMEIYGSAYADKLDNSRS [V15Y] as the variant, how does the protein stability index read?
The protein stability index was 1.87.

For LVVFTASMEIYGSAVDDKLDNSRS [A16D], which protein stability index is on record?
The protein stability index was 3.11.

Which protein stability index does the source give for LVVFTASMEIYGSAVEDKLDNSRS [A16E] here?
The protein stability index was 2.34.

With LVVFTASMEIYGSAVFDKLDNSRS [A16F] as the variant, how does the protein stability index read?
Its protein stability index is 4.14.

With LVVFTASMEIYGSAVHDKLDNSRS [A16H] as the variant, how does the protein stability index read?
The protein stability index was 3.11.

For LVVFTASMEIYGSAVIDKLDNSRS [A16I], which protein stability index is on record?
Its protein stability index is 2.93.

For LVVFTASMEIYGSAVKDKLDNSRS [A16K], which protein stability index is on record?
Its protein stability index is 2.89.

With LVVFTASMEIYGSAVNDKLDNSRS [A16N] as the variant, how does the protein stability index read?
Its protein stability index is 1.46.

With LVVFTASMEIYGSAVPDKLDNSRS [A16P] as the variant, how does the protein stability index read?
Its protein stability index is 3.45.

Which protein stability index does the source give for LVVFTASMEIYGSAVQDKLDNSRS [A16Q] here?
The protein stability index was 2.02.

With LVVFTASMEIYGSAVRDKLDNSRS [A16R] as the variant, how does the protein stability index read?
The protein stability index was 3.75.

Which protein stability index does the source give for LVVFTASMEIYGSAVAHKLDNSRS [D17H] here?
Its protein stability index is 3.

For LVVFTASMEIYGSAVAKKLDNSRS [D17K], which protein stability index is on record?
Its protein stability index is 2.26.

Which protein stability index does the source give for LVVFTASMEIYGSAVALKLDNSRS [D17L] here?
The protein stability index was 3.58.

Which protein stability index does the source give for LVVFTASMEIYGSAVARKLDNSRS [D17R] here?
The protein stability index was 2.48.

Which protein stability index does the source give for LVVFTASMEIYGSAVAVKLDNSRS [D17V] here?
The protein stability index was 1.97.

With LVVFTASMEIYGSAVAYKLDNSRS [D17Y] as the variant, how does the protein stability index read?
The protein stability index was 2.6.

With LVVFTASMEIYGSAVADDLDNSRS [K18D] as the variant, how does the protein stability index read?
Its protein stability index is 2.94.

Which protein stability index does the source give for LVVFTASMEIYGSAVADGLDNSRS [K18G] here?
Its protein stability index is 1.99.

Which protein stability index does the source give for LVVFTASMEIYGSAVADHLDNSRS [K18H] here?
Its protein stability index is 1.88.

Which protein stability index does the source give for LVVFTASMEIYGSAVADILDNSRS [K18I] here?
Its protein stability index is 4.09.

With LVVFTASMEIYGSAVADLLDNSRS [K18L] as the variant, how does the protein stability index read?
The protein stability index was 2.77.

Which protein stability index does the source give for LVVFTASMEIYGSAVADMLDNSRS [K18M] here?
Its protein stability index is 2.11.

Which protein stability index does the source give for LVVFTASMEIYGSAVADNLDNSRS [K18N] here?
Its protein stability index is 2.74.

With LVVFTASMEIYGSAVADQLDNSRS [K18Q] as the variant, how does the protein stability index read?
The protein stability index was 2.49.

Which protein stability index does the source give for LVVFTASMEIYGSAVADVLDNSRS [K18V] here?
Its protein stability index is 2.79.

For LVVFTASMEIYGSAVADYLDNSRS [K18Y], which protein stability index is on record?
Its protein stability index is 1.55.

For LVVFTASMEIYGSAVADKDDNSRS [L19D], which protein stability index is on record?
The protein stability index was 1.73.

For LVVFTASMEIYGSAVADKEDNSRS [L19E], which protein stability index is on record?
Its protein stability index is 2.17.

Which protein stability index does the source give for LVVFTASMEIYGSAVADKFDNSRS [L19F] here?
Its protein stability index is 2.41.

Which protein stability index does the source give for LVVFTASMEIYGSAVADKHDNSRS [L19H] here?
The protein stability index was 1.54.

Which protein stability index does the source give for LVVFTASMEIYGSAVADKIDNSRS [L19I] here?
Its protein stability index is 1.62.

For LVVFTASMEIYGSAVADKKDNSRS [L19K], which protein stability index is on record?
Its protein stability index is 1.66.

For LVVFTASMEIYGSAVADKMDNSRS [L19M], which protein stability index is on record?
The protein stability index was 2.41.

For LVVFTASMEIYGSAVADKNDNSRS [L19N], which protein stability index is on record?
The protein stability index was 1.23.

Which protein stability index does the source give for LVVFTASMEIYGSAVADKPDNSRS [L19P] here?
Its protein stability index is 2.23.

For LVVFTASMEIYGSAVADKQDNSRS [L19Q], which protein stability index is on record?
Its protein stability index is 2.45.

Which protein stability index does the source give for LVVFTASMEIYGSAVADKRDNSRS [L19R] here?
The protein stability index was 1.87.

Which protein stability index does the source give for LVVFTASMEIYGSAVADKSDNSRS [L19S] here?
Its protein stability index is 2.02.

Which protein stability index does the source give for LVVFTASMEIYGSAVADKWDNSRS [L19W] here?
The protein stability index was 2.27.

Which protein stability index does the source give for LVVFTASMEIYGSAVADKYDNSRS [L19Y] here?
Its protein stability index is 3.37.

Which protein stability index does the source give for LVVFTASMEIYGSAVADKLANSRS [D20A] here?
The protein stability index was 3.32.

For LVVFTASMEIYGSAVADKLCNSRS [D20C], which protein stability index is on record?
Its protein stability index is 1.69.

Which protein stability index does the source give for LVVFTASMEIYGSAVADKLENSRS [D20E] here?
Its protein stability index is 1.97.

Which protein stability index does the source give for LVVFTASMEIYGSAVADKLHNSRS [D20H] here?
The protein stability index was 1.99.

Which protein stability index does the source give for LVVFTASMEIYGSAVADKLKNSRS [D20K] here?
The protein stability index was 1.88.

With LVVFTASMEIYGSAVADKLLNSRS [D20L] as the variant, how does the protein stability index read?
The protein stability index was 2.95.

Which protein stability index does the source give for LVVFTASMEIYGSAVADKLNNSRS [D20N] here?
The protein stability index was 1.6.

With LVVFTASMEIYGSAVADKLPNSRS [D20P] as the variant, how does the protein stability index read?
Its protein stability index is 2.48.

Which protein stability index does the source give for LVVFTASMEIYGSAVADKLQNSRS [D20Q] here?
The protein stability index was 3.44.

For LVVFTASMEIYGSAVADKLRNSRS [D20R], which protein stability index is on record?
The protein stability index was 1.2.

Which protein stability index does the source give for LVVFTASMEIYGSAVADKLSNSRS [D20S] here?
The protein stability index was 3.14.

With LVVFTASMEIYGSAVADKLTNSRS [D20T] as the variant, how does the protein stability index read?
Its protein stability index is 2.02.

With LVVFTASMEIYGSAVADKLVNSRS [D20V] as the variant, how does the protein stability index read?
The protein stability index was 2.63.

For LVVFTASMEIYGSAVADKLYNSRS [D20Y], which protein stability index is on record?
Its protein stability index is 2.51.

Which protein stability index does the source give for LVVFTASMEIYGSAVADKLDASRS [N21A] here?
The protein stability index was 2.08.

With LVVFTASMEIYGSAVADKLDDSRS [N21D] as the variant, how does the protein stability index read?
Its protein stability index is 2.47.

Which protein stability index does the source give for LVVFTASMEIYGSAVADKLDGSRS [N21G] here?
Its protein stability index is 1.8.

Which protein stability index does the source give for LVVFTASMEIYGSAVADKLDKSRS [N21K] here?
The protein stability index was 3.06.

Which protein stability index does the source give for LVVFTASMEIYGSAVADKLDPSRS [N21P] here?
The protein stability index was 3.

For LVVFTASMEIYGSAVADKLDRSRS [N21R], which protein stability index is on record?
Its protein stability index is 2.68.

For LVVFTASMEIYGSAVADKLDSSRS [N21S], which protein stability index is on record?
The protein stability index was 4.01.

Which protein stability index does the source give for LVVFTASMEIYGSAVADKLDTSRS [N21T] here?
Its protein stability index is 2.67.

For LVVFTASMEIYGSAVADKLDVSRS [N21V], which protein stability index is on record?
The protein stability index was 1.5.

For LVVFTASMEIYGSAVADKLDNARS [S22A], which protein stability index is on record?
Its protein stability index is 2.39.

With LVVFTASMEIYGSAVADKLDNDRS [S22D] as the variant, how does the protein stability index read?
The protein stability index was 2.71.

Which protein stability index does the source give for LVVFTASMEIYGSAVADKLDNERS [S22E] here?
Its protein stability index is 4.27.
